Stoichiometry N data for one substance are collected here from article PMC10564799.

Values joined by “and” are separate entries in the source; they are usually repeats but may differ in a detail not shown here. Equal entries are not always repeated.

This test deals with SFTSV glycoprotein Gc (SFTSV (Dabie bandavirus), strain JA1-2018). In words: cryo-EM structure.

Take SFTSV glycoprotein Gc (natural protein): the stoichiometry N is 5 and 6.
